Values joined by “and” are separate entries in the source; they are usually repeats but may differ in a detail not shown here. Identical values can stand only once.
What was measured:
[1] = molecular target: CD3 on purified human T cells (human) (UniProt P07766); experiment: flow cytometry of purified human CD3 T cells, BiTE at 0.1 ug/ml then FITC secondary; same sample file as in FIGURE 5B
[2] = molecular target: CD3 on purified human T cells (human) (UniProt P07766); experiment: flow cytometry of purified human CD3 T cells, BiTE at 10 ug/ml then FITC secondary; same sample file as in FIGURE 5B
[3] = molecular target: CD3 on purified human T cells (human) (UniProt P07766); experiment: flow cytometry of purified human CD3 T cells, BiTE at 1 ug/ml then FITC secondary; same sample file as in FIGURE 5B
[4] = molecular target: CD3 on purified human T cells (human) (UniProt P07766); experiment: flow cytometry of purified human CD3 T cells, BiTE at 10 ug/ml then FITC secondary; secondary alone (GA6His_F 1;100) 8.13, unstained 8.13
[5] = molecular target: CD3 on purified human T cells (human) (UniProt P07766); experiment: flow cytometry of purified human CD3 T cells, BiTE at 1 ug/ml then FITC secondary; secondary alone (GA6His_F 1;100) 8.13, unstained 8.13
[6] = molecular target: Ras10-WT peptide/HLA-A0201 complex on peptide-pulsed T2 cells (human)
[7] = molecular target: Ras10-G12V peptide/HLA-A0201 complex on peptide-pulsed T2 cells (human)
[8] = molecular target: CD3 on purified human T cells (human) (UniProt P07766); experiment: flow cytometry of purified human CD3 T cells, BiTE at 0.1 ug/ml then FITC secondary; secondary alone (GA6His_F 1;100) 8.13, unstained 8.13
[9] = molecular target: HLA-A0201 on T2 cells without added peptide (human); experiment: flow cytometry: BB7 staining of T2 cells without peptide

Sequence of CD3 on purified human T cells (human) (P07766 23-207): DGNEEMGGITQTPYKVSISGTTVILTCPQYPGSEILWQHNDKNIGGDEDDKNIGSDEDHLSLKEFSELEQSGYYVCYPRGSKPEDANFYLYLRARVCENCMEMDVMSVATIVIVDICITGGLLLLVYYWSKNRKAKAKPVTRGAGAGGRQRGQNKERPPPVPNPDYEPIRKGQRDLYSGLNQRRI

Row | Substance | Median:FL1-H [1] | Median:FL1-H [2] | Median:FL1-H [3] | Median:FL1-H [4] | Median:FL1-H [5] | Median:FL1-H [6] | Median:FL1-H [7] | Median:FL1-H [8] | Median:FL1-H [9]
1 | isotype control BiTE (bispecific antibody) | 39.6 | 604 | 229 | 604 | 229 | 10.7 and 11.2 | 11.2 and 11.4 | 39.6 | 
2 | BB7 (antibody) |  |  |  |  |  |  |  |  | 316
